# According to PMC9272825 (The Journal of Physical Chemistry. B, 2022):
# Where “and” joins values, the source holds several entries; their conditions need not be identical. Identical values can stand only once.
# Target: N-terminal domain of enzyme I (EIN) (UniProt P08839 1-249)
# Test: NMR titration
binder,measurement,value
Histidine phosphocarrier protein (HPr) (natural protein) not shown,Kd,2820 nM and 2450 nM and 3030 nM and 3020 nM
